The target of series [1] is T1, Myc-RTA (IVT) (Kaposi's sarcoma-associated herpesvirus …, UniProt F5HCV3 1-691). Description: EMSA. A general note: In EMSA bound probe runs differently from free probe, usually more slowly.
Series [2] addresses T1, Myc-RTA (IVT). Description: EMSA. The source holds these as a separate data set.

Like-named read-outs stand apart in the source and are kept apart here.

T1 sequence (F5HCV3 whole entry): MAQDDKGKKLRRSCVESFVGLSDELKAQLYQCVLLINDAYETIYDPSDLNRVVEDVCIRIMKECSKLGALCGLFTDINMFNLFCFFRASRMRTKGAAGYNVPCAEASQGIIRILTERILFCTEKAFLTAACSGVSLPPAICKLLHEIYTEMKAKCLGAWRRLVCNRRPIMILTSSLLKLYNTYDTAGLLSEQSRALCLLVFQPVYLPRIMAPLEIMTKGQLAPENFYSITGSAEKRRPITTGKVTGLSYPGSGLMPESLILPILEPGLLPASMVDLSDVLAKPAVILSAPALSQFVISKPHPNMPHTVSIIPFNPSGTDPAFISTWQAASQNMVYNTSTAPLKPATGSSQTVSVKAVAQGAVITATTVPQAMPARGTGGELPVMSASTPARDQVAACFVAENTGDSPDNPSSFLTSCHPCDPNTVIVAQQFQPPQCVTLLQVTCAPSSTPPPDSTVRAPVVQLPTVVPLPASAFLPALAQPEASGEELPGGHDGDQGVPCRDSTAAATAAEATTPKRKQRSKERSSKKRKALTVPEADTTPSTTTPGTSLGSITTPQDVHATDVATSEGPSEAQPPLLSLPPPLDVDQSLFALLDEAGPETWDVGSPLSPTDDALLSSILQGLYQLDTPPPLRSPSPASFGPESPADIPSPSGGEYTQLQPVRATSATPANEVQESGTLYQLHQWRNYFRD

B1: 59pF (minimal RRE) (dsDNA)
DNA 1: CGATTTGTGAAGGTTAACCTGTCCATG
DNA 2: CATGGACAGGTTAACCTTCACAAATCG
For B1, in series [1], the binding result is recorded as “binds”.

B2: 59pA (dsDNA)
DNA 1: ACACCACGTGTGTGACTGACGATTTGTGAAGGTTAACCTGTCCATGTCGC
DNA 2: GCGACATGGACAGGTTAACCTTCACAAATCGTCAGTCACACACGTGGTGT
Consider B2, for which, in series [2], the binding result is listed as “binds”.

The values are drawn from article PMC5868747.
